This assay can be described thus: Cell lysate reaction of pMT enzymes with psi-ionone, irones quantified by HS-SPME-GCMS. The class given is biochemical. Conditions: AUC vs non-mutated (=1). The procedure, abridged: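 pMT1 site-saturation mutants were expressed in E. coli BL21(DE3) and lysed, and lysates were incubated 2 days at 28 °C with 0.2 mM SAM and 10 mg/L psi-ionone (plus caryophyllene) in 50 mM Tris pH 7, 10 mM MgCl2. Cis-α-irone was measured by HS-SPME-GCMS peak area and given as fold change over non-mutated enzyme.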

B1: pMT1_M236L: pMT1 with M236L (protein)
chain: MPQEARTPQQQVTADEVGDWYDKFGEVYHLTLGESVHCGLWFPPDAPVPQDMELVTMSSQAQDRYTDYLIETLDPKAGQHLLDIGCGTGRTALKAARQRGIAVTGVAVSKEQIAAANRLAAGHGLTERLTFEVADAMRLPYEDESFDCAWAIESLCHMDRAKALGEAWRVLKPGGDLLVLESVVTEELTEPETALFETLYAANVPPRLGEFFDIVSGAGFHTLSLKDLSANLAMTLNVFALGVYSRRAEFTERFGAEFVDGLLAGLGSAQETLIRKTRFFMATLRKPAV
Regarding B1, the “fold change in cis-α-irone produced” value (pMT1_M236 mutants) turned out to be 1.1.

B2: pMT1_Y200N (protein)
chain: MPQEARTPQQQVTADEVGDWYDKFGEVYHLTLGESVHCGLWFPPDAPVPQDMELVTMSSQAQDRYTDYLIETLDPKAGQHLLDIGCGTGRTALKAARQRGIAVTGVAVSKEQIAAANRLAAGHGLTERLTFEVADAMRLPYEDESFDCAWAIESLCHMDRAKALGEAWRVLKPGGDLLVLESVVTEELTEPETALFETLNAANVPPRLGEFFDIVSGAGFHTLSLKDLSANLAMTMNVFALGVYSRRAEFTERFGAEFVDGLLAGLGSAQETLIRKTRFFMATLRKPAV
Regarding B2, where the note is “pMT1_Y200 mutants”, the “fold change in cis-α-irone produced” value turned out to be 0.0.

B3: pMT1_M236Q: pMT1 with M236Q (protein)
chain: MPQEARTPQQQVTADEVGDWYDKFGEVYHLTLGESVHCGLWFPPDAPVPQDMELVTMSSQAQDRYTDYLIETLDPKAGQHLLDIGCGTGRTALKAARQRGIAVTGVAVSKEQIAAANRLAAGHGLTERLTFEVADAMRLPYEDESFDCAWAIESLCHMDRAKALGEAWRVLKPGGDLLVLESVVTEELTEPETALFETLYAANVPPRLGEFFDIVSGAGFHTLSLKDLSANLAMTQNVFALGVYSRRAEFTERFGAEFVDGLLAGLGSAQETLIRKTRFFMATLRKPAV
On to B3, for which, for the setting “pMT1_M236 mutants”, the “fold change in cis-α-irone produced” value came out at 0.0.

B4: pMT1_E153N: pMT1 with E153N (protein)
chain: MPQEARTPQQQVTADEVGDWYDKFGEVYHLTLGESVHCGLWFPPDAPVPQDMELVTMSSQAQDRYTDYLIETLDPKAGQHLLDIGCGTGRTALKAARQRGIAVTGVAVSKEQIAAANRLAAGHGLTERLTFEVADAMRLPYEDESFDCAWAINSLCHMDRAKALGEAWRVLKPGGDLLVLESVVTEELTEPETALFETLYAANVPPRLGEFFDIVSGAGFHTLSLKDLSANLAMTMNVFALGVYSRRAEFTERFGAEFVDGLLAGLGSAQETLIRKTRFFMATLRKPAV
Consider B4, for which the “fold change in cis-α-irone produced” value (pMT1_E153 mutants) amounted to 0.0.

B5: pMT1_M236P: pMT1 with M236P (protein)
chain: MPQEARTPQQQVTADEVGDWYDKFGEVYHLTLGESVHCGLWFPPDAPVPQDMELVTMSSQAQDRYTDYLIETLDPKAGQHLLDIGCGTGRTALKAARQRGIAVTGVAVSKEQIAAANRLAAGHGLTERLTFEVADAMRLPYEDESFDCAWAIESLCHMDRAKALGEAWRVLKPGGDLLVLESVVTEELTEPETALFETLYAANVPPRLGEFFDIVSGAGFHTLSLKDLSANLAMTPNVFALGVYSRRAEFTERFGAEFVDGLLAGLGSAQETLIRKTRFFMATLRKPAV
As to B5, under “pMT1_M236 mutants”, the “fold change in cis-α-irone produced” value is 0.0.

B6: pMT1_E153P: pMT1 with E153P (protein)
chain: MPQEARTPQQQVTADEVGDWYDKFGEVYHLTLGESVHCGLWFPPDAPVPQDMELVTMSSQAQDRYTDYLIETLDPKAGQHLLDIGCGTGRTALKAARQRGIAVTGVAVSKEQIAAANRLAAGHGLTERLTFEVADAMRLPYEDESFDCAWAIPSLCHMDRAKALGEAWRVLKPGGDLLVLESVVTEELTEPETALFETLYAANVPPRLGEFFDIVSGAGFHTLSLKDLSANLAMTMNVFALGVYSRRAEFTERFGAEFVDGLLAGLGSAQETLIRKTRFFMATLRKPAV
Consider B6, for which the “fold change in cis-α-irone produced” value (pMT1_E153 mutants) turned out to be 0.0.

B7: pMT1_Y200P: pMT1 with Y200P (protein)
chain: MPQEARTPQQQVTADEVGDWYDKFGEVYHLTLGESVHCGLWFPPDAPVPQDMELVTMSSQAQDRYTDYLIETLDPKAGQHLLDIGCGTGRTALKAARQRGIAVTGVAVSKEQIAAANRLAAGHGLTERLTFEVADAMRLPYEDESFDCAWAIESLCHMDRAKALGEAWRVLKPGGDLLVLESVVTEELTEPETALFETLPAANVPPRLGEFFDIVSGAGFHTLSLKDLSANLAMTMNVFALGVYSRRAEFTERFGAEFVDGLLAGLGSAQETLIRKTRFFMATLRKPAV
In the case of B7, the “fold change in cis-α-irone produced” value (pMT1_Y200 mutants) came to 0.0.

B8: pMT1_E153L: pMT1 with E153L (protein)
chain: MPQEARTPQQQVTADEVGDWYDKFGEVYHLTLGESVHCGLWFPPDAPVPQDMELVTMSSQAQDRYTDYLIETLDPKAGQHLLDIGCGTGRTALKAARQRGIAVTGVAVSKEQIAAANRLAAGHGLTERLTFEVADAMRLPYEDESFDCAWAILSLCHMDRAKALGEAWRVLKPGGDLLVLESVVTEELTEPETALFETLYAANVPPRLGEFFDIVSGAGFHTLSLKDLSANLAMTMNVFALGVYSRRAEFTERFGAEFVDGLLAGLGSAQETLIRKTRFFMATLRKPAV
Turning to B8, the “fold change in cis-α-irone produced” value (pMT1_E153 mutants) was determined as 0.0.

B9: pMT1_R160N (protein)
chain: MPQEARTPQQQVTADEVGDWYDKFGEVYHLTLGESVHCGLWFPPDAPVPQDMELVTMSSQAQDRYTDYLIETLDPKAGQHLLDIGCGTGRTALKAARQRGIAVTGVAVSKEQIAAANRLAAGHGLTERLTFEVADAMRLPYEDESFDCAWAIESLCHMDNAKALGEAWRVLKPGGDLLVLESVVTEELTEPETALFETLYAANVPPRLGEFFDIVSGAGFHTLSLKDLSANLAMTMNVFALGVYSRRAEFTERFGAEFVDGLLAGLGSAQETLIRKTRFFMATLRKPAV
Turning to B9, under “pMT1_R160 mutants”, the “fold change in cis-α-irone produced” value is recorded as 0.8.

B10: pMT1_R160P: pMT1 with R160P (protein)
chain: MPQEARTPQQQVTADEVGDWYDKFGEVYHLTLGESVHCGLWFPPDAPVPQDMELVTMSSQAQDRYTDYLIETLDPKAGQHLLDIGCGTGRTALKAARQRGIAVTGVAVSKEQIAAANRLAAGHGLTERLTFEVADAMRLPYEDESFDCAWAIESLCHMDPAKALGEAWRVLKPGGDLLVLESVVTEELTEPETALFETLYAANVPPRLGEFFDIVSGAGFHTLSLKDLSANLAMTMNVFALGVYSRRAEFTERFGAEFVDGLLAGLGSAQETLIRKTRFFMATLRKPAV
B10: the “fold change in cis-α-irone produced” value (pMT1_R160 mutants) came out at 0.6.

B11: pMT1_Y200Q: pMT1 with Y200Q (protein)
chain: MPQEARTPQQQVTADEVGDWYDKFGEVYHLTLGESVHCGLWFPPDAPVPQDMELVTMSSQAQDRYTDYLIETLDPKAGQHLLDIGCGTGRTALKAARQRGIAVTGVAVSKEQIAAANRLAAGHGLTERLTFEVADAMRLPYEDESFDCAWAIESLCHMDRAKALGEAWRVLKPGGDLLVLESVVTEELTEPETALFETLQAANVPPRLGEFFDIVSGAGFHTLSLKDLSANLAMTMNVFALGVYSRRAEFTERFGAEFVDGLLAGLGSAQETLIRKTRFFMATLRKPAV
For the molecule B11, under “pMT1_Y200 mutants”, the “fold change in cis-α-irone produced” value is listed as 0.1.

B12: pMT1_E153M: pMT1 with E153M (protein)
chain: MPQEARTPQQQVTADEVGDWYDKFGEVYHLTLGESVHCGLWFPPDAPVPQDMELVTMSSQAQDRYTDYLIETLDPKAGQHLLDIGCGTGRTALKAARQRGIAVTGVAVSKEQIAAANRLAAGHGLTERLTFEVADAMRLPYEDESFDCAWAIMSLCHMDRAKALGEAWRVLKPGGDLLVLESVVTEELTEPETALFETLYAANVPPRLGEFFDIVSGAGFHTLSLKDLSANLAMTMNVFALGVYSRRAEFTERFGAEFVDGLLAGLGSAQETLIRKTRFFMATLRKPAV
Consider B12, for which the “fold change in cis-α-irone produced” value (pMT1_E153 mutants) worked out at 0.0.

B13: pMT1_M236N: pMT1 with M236N (protein)
chain: MPQEARTPQQQVTADEVGDWYDKFGEVYHLTLGESVHCGLWFPPDAPVPQDMELVTMSSQAQDRYTDYLIETLDPKAGQHLLDIGCGTGRTALKAARQRGIAVTGVAVSKEQIAAANRLAAGHGLTERLTFEVADAMRLPYEDESFDCAWAIESLCHMDRAKALGEAWRVLKPGGDLLVLESVVTEELTEPETALFETLYAANVPPRLGEFFDIVSGAGFHTLSLKDLSANLAMTNNVFALGVYSRRAEFTERFGAEFVDGLLAGLGSAQETLIRKTRFFMATLRKPAV
For B13, the “fold change in cis-α-irone produced” value (pMT1_M236 mutants) was 3.9.

B14: pMT1_R160M: pMT1 with R160M (protein)
chain: MPQEARTPQQQVTADEVGDWYDKFGEVYHLTLGESVHCGLWFPPDAPVPQDMELVTMSSQAQDRYTDYLIETLDPKAGQHLLDIGCGTGRTALKAARQRGIAVTGVAVSKEQIAAANRLAAGHGLTERLTFEVADAMRLPYEDESFDCAWAIESLCHMDMAKALGEAWRVLKPGGDLLVLESVVTEELTEPETALFETLYAANVPPRLGEFFDIVSGAGFHTLSLKDLSANLAMTMNVFALGVYSRRAEFTERFGAEFVDGLLAGLGSAQETLIRKTRFFMATLRKPAV
On to B14, for which, where the note is “pMT1_R160 mutants”, the “fold change in cis-α-irone produced” value is listed as 0.9.

B15: pMT1_Y200M: pMT1 with Y200M (protein)
chain: MPQEARTPQQQVTADEVGDWYDKFGEVYHLTLGESVHCGLWFPPDAPVPQDMELVTMSSQAQDRYTDYLIETLDPKAGQHLLDIGCGTGRTALKAARQRGIAVTGVAVSKEQIAAANRLAAGHGLTERLTFEVADAMRLPYEDESFDCAWAIESLCHMDRAKALGEAWRVLKPGGDLLVLESVVTEELTEPETALFETLMAANVPPRLGEFFDIVSGAGFHTLSLKDLSANLAMTMNVFALGVYSRRAEFTERFGAEFVDGLLAGLGSAQETLIRKTRFFMATLRKPAV
With B15, the “fold change in cis-α-irone produced” value (pMT1_Y200 mutants) stood at 0.4.

B16: pMT1_R160Q: pMT1 with R160Q (protein)
chain: MPQEARTPQQQVTADEVGDWYDKFGEVYHLTLGESVHCGLWFPPDAPVPQDMELVTMSSQAQDRYTDYLIETLDPKAGQHLLDIGCGTGRTALKAARQRGIAVTGVAVSKEQIAAANRLAAGHGLTERLTFEVADAMRLPYEDESFDCAWAIESLCHMDQAKALGEAWRVLKPGGDLLVLESVVTEELTEPETALFETLYAANVPPRLGEFFDIVSGAGFHTLSLKDLSANLAMTMNVFALGVYSRRAEFTERFGAEFVDGLLAGLGSAQETLIRKTRFFMATLRKPAV
Take B16: the “fold change in cis-α-irone produced” value (pMT1_R160 mutants) turned out to be 1.3.

The values are drawn from patent US20240240209A1, “SYNTHESIS OF ENANTIOPURE CIS-A-IRONE FROM A RENEWABLE CARBON SOURCE” (Agency for Science, Technology and Research, priority 2021, published 2024).
